Assay results reported in patent US20060257938A1, “Method of screening for drugs that block ligand binding to a lipid binding protein” (priority 2005, published 2006).

Key:
Assay type in all cases: binding
[1] = Probe fluorescence ratio response to palmitoleic acid relative to ADIFAB2; settings: Table 5
Outline: (§1)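 Each fatty acid's response was expressed relative to ADIFAB2, the rI-FABP-L72A probe, as ΔR/ΔRreference. ΔR is the change in the background-corrected two-wavelength intensity ratio R=Fλ1/Fλ2 from its analyte-free baseline R0. Emission was read near about 420-480 nm for unbound and about 495-580 nm for FFA-bound probe.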

[2] = Probe fluorescence ratio response to linoleic acid relative to ADIFAB2; settings: Table 5
Outline: as §1

[3] = Probe fluorescence ratio response to palmitic acid relative to ADIFAB2; settings: Table 5
Outline: as §1

[4] = Probe fluorescence ratio response to stearic acid relative to ADIFAB2; settings: Table 5
Outline: as §1

[5] = Probe fluorescence ratio response to linolenic acid relative to ADIFAB2; settings: Table 5
Outline: as §1

[6] = Probe fluorescence ratio response to arachidonic acid relative to ADIFAB2; settings: Table 5; Arachidonic acid
Outline: as §1

[7] = Probe fluorescence ratio response to oleic acid relative to ADIFAB2; settings: Table 5
Outline: as §1

[8] = Probe fluorescence intensity change with UCB:BSA

B1: L2P22E6: FABP probe, substitutions M18V G31A F55I A73W vs SEQ ID NO: 2 (protein, listed as Rattus norvegicus)
chain: AFDGTWKVDRNENYEKFVEKMGINVVKRKLAAHDNLKLTITQEGNKFTVKESSNIRNIDVVFELGVDFAYSLWDGTELTGTWTMEGNKLVGKFKRVDNGKELIAVREISGNELIQTYTYEGVEAKRIFKKE
modifications: PEPTIDE (1)...(131) wild-type rat intestinal fatty acid binding protein
[1]
  ΔR/DRAΔ2 POA: 1.6
[2]
  ΔR/DRAΔ2 LA: 1.3
[3]
  ΔR/DRAΔ2 PA: 1.3
[4]
  ΔR/DRAΔ2 SA: 0.4
[5]
  ΔR/DRAΔ2 LNA: 1.6
[6]
  ΔR/DRAΔ2 AA: 1.0
[7]
  ΔR/DRAΔ2 OA: 0.8

B2: L2P18H12: FABP probe, substitutions M18I G31V A73G vs SEQ ID NO: 2 (protein, listed as Rattus norvegicus)
chain: AFDGTWKVDRNENYEKFIEKMGINVVKRKLVAHDNLKLTITQEGNKFTVKESSNFRNIDVVFELGVDFAYSLGDGTELTGTWTMEGNKLVGKFKRVDNGKELIAVREISGNELIQTYTYEGVEAKRIFKKE
modifications: PEPTIDE (1)...(131) wild-type rat intestinal fatty acid binding protein
[1]
  ΔR/DRAΔ2 POA: 2.1
[2]
  ΔR/DRAΔ2 LA: 1.7
[3]
  ΔR/DRAΔ2 PA: 1.6
[4]
  ΔR/DRAΔ2 SA: 0.5
[5]
  ΔR/DRAΔ2 LNA: 1.9
[6]
  ΔR/DRAΔ2 AA: 1.3
[7]
  ΔR/DRAΔ2 OA: 1.0

B3: L2P8A5: FABP probe, substitutions M18V G31A F55W A73W vs SEQ ID NO: 2 (protein, listed as Rattus norvegicus)
chain: AFDGTWKVDRNENYEKFVEKMGINVVKRKLAAHDNLKLTITQEGNKFTVKESSNWRNIDVVFELGVDFAYSLWDGTELTGTWTMEGNKLVGKFKRVDNGKELIAVREISGNELIQTYTYEGVEAKRIFKKE
modifications: PEPTIDE (1)...(131) wild-type rat intestinal fatty acid binding protein
[1]
  ΔR/DRAΔ2 POA: 2.0
[2]
  ΔR/DRAΔ2 LA: 1.6
[3]
  ΔR/DRAΔ2 PA: 1.5
[4]
  ΔR/DRAΔ2 SA: 0.4
[5]
  ΔR/DRAΔ2 LNA: 1.9
[6]
  ΔR/DRAΔ2 AA: 1.1
[7]
  ΔR/DRAΔ2 OA: 0.9

B4: L2P21C1: FABP probe, substitutions M18I G31Y A73V vs SEQ ID NO: 2 (protein, listed as Rattus norvegicus)
chain: AFDGTWKVDRNENYEKFIEKMGINVVKRKLYAHDNLKLTITQEGNKFTVKESSNFRNIDVVFELGVDFAYSLVDGTELTGTWTMEGNKLVGKFKRVDNGKELIAVREISGNELIQTYTYEGVEAKRIFKKE
modifications: PEPTIDE (1)...(131) wild-type rat intestinal fatty acid binding protein
[1]
  ΔR/DRAΔ2 POA: 2.9
[2]
  ΔR/DRAΔ2 LA: 3.4
[3]
  ΔR/DRAΔ2 PA: 2.0
[4]
  ΔR/DRAΔ2 SA: 1.6
[5]
  ΔR/DRAΔ2 LNA: 3.1
[6]
  ΔR/DRAΔ2 AA: 2.8
[7]
  ΔR/DRAΔ2 OA: 2.7

B5: L2P23A4: FABP probe, substitutions M18V G31I F55L A73V vs SEQ ID NO: 2 (protein, listed as Rattus norvegicus)
chain: AFDGTWKVDRNENYEKFVEKMGINVVKRKLIAHDNLKLTITQEGNKFTVKESSNLRNIDVVFELGVDFAYSLVDGTELTGTWTMEGNKLVGKFKRVDNGKELIAVREISGNELIQTYTYEGVEAKRIFKKE
modifications: PEPTIDE (1)...(131) wild-type rat intestinal fatty acid binding protein
[1]
  ΔR/DRAΔ2 POA: 2.8
[2]
  ΔR/DRAΔ2 LA: 3.1
[3]
  ΔR/DRAΔ2 PA: 1.9
[4]
  ΔR/DRAΔ2 SA: 1.2
[5]
  ΔR/DRAΔ2 LNA: 2.6
[6]
  ΔR/DRAΔ2 AA: 2.8
[7]
  ΔR/DRAΔ2 OA: 2.3

B6: L2P12C5: FABP probe, substitutions M18I G31I F55M A73I vs SEQ ID NO: 2 (protein, listed as Rattus norvegicus)
chain: AFDGTWKVDRNENYEKFIEKMGINVVKRKLIAHDNLKLTITQEGNKFTVKESSNMRNIDVVFELGVDFAYSLIDGTELTGTWTMEGNKLVGKFKRVDNGKELIAVREISGNELIQTYTYEGVEAKRIFKKE
modifications: PEPTIDE (1)...(131) wild-type rat intestinal fatty acid binding protein
[1]
  ΔR/DRAΔ2 POA: 1.9
[2]
  ΔR/DRAΔ2 LA: 1.5
[3]
  ΔR/DRAΔ2 PA: 1.5
[4]
  ΔR/DRAΔ2 SA: 0.4
[5]
  ΔR/DRAΔ2 LNA: 1.7
[6]
  ΔR/DRAΔ2 AA: 1.3
[7]
  ΔR/DRAΔ2 OA: 0.8

B7: L2P8A6: FABP probe, substitutions M18I G31V F55V A73V vs SEQ ID NO: 2 (protein, listed as Rattus norvegicus)
chain: AFDGTWKVDRNENYEKFIEKMGINVVKRKLVAHDNLKLTITQEGNKFTVKESSNVRNIDVVFELGVDFAYSLVDGTELTGTWTMEGNKLVGKFKRVDNGKELIAVREISGNELIQTYTYEGVEAKRIFKKE
modifications: PEPTIDE (1)...(131) wild-type rat intestinal fatty acid binding protein
[1]
  ΔR/DRAΔ2 POA: 1.3
[2]
  ΔR/DRAΔ2 LA: 0.8
[3]
  ΔR/DRAΔ2 PA: 1.0
[4]
  ΔR/DRAΔ2 SA: 0.2
[5]
  ΔR/DRAΔ2 LNA: 1.2
[6]
  ΔR/DRAΔ2 AA: 0.6
[7]
  ΔR/DRAΔ2 OA: 0.4

B8: L2P17H10: FABP probe, substitutions M18G G31F A73L vs SEQ ID NO: 2 (protein, listed as Rattus norvegicus)
chain: AFDGTWKVDRNENYEKFGEKMGINVVKRKLFAHDNLKLTITQEGNKFTVKESSNFRNIDVVFELGVDFAYSLLDGTELTGTWTMEGNKLVGKFKRVDNGKELIAVREISGNELIQTYTYEGVEAKRIFKKE
modifications: PEPTIDE (1)...(131) wild-type rat intestinal fatty acid binding protein
[1]
  ΔR/DRAΔ2 POA: 1.2
[2]
  ΔR/DRAΔ2 LA: 1.5
[3]
  ΔR/DRAΔ2 PA: 1.0
[4]
  ΔR/DRAΔ2 SA: 1.7
[5]
  ΔR/DRAΔ2 LNA: 1.2
[6]
  ΔR/DRAΔ2 AA: 1.8
[7]
  ΔR/DRAΔ2 OA: 1.4

B9: L2P22G6: FABP probe, substitutions M18I G31Y A73G vs SEQ ID NO: 2 (protein, listed as Rattus norvegicus)
chain: AFDGTWKVDRNENYEKFIEKMGINVVKRKLYAHDNLKLTITQEGNKFTVKESSNFRNIDVVFELGVDFAYSLGDGTELTGTWTMEGNKLVGKFKRVDNGKELIAVREISGNELIQTYTYEGVEAKRIFKKE
modifications: PEPTIDE (1)...(131) wild-type rat intestinal fatty acid binding protein
[1]
  ΔR/DRAΔ2 POA: 2.6
[2]
  ΔR/DRAΔ2 LA: 2.6
[3]
  ΔR/DRAΔ2 PA: 1.9
[4]
  ΔR/DRAΔ2 SA: 0.9
[5]
  ΔR/DRAΔ2 LNA: 2.7
[6]
  ΔR/DRAΔ2 AA: 1.8
[7]
  ΔR/DRAΔ2 OA: 1.6

B10: L2P11B4: FABP probe, substitutions M18V G31A A73W vs SEQ ID NO: 2 (protein, listed as Rattus norvegicus)
chain: AFDGTWKVDRNENYEKFVEKMGINVVKRKLAAHDNLKLTITQEGNKFTVKESSNFRNIDVVFELGVDFAYSLWDGTELTGTWTMEGNKLVGKFKRVDNGKELIAVREISGNELIQTYTYEGVEAKRIFKKE
modifications: PEPTIDE (1)...(131) wild-type rat intestinal fatty acid binding protein
[1]
  ΔR/DRAΔ2 POA: 3.1
[2]
  ΔR/DRAΔ2 LA: 2.6
[3]
  ΔR/DRAΔ2 PA: 2.2
[4]
  ΔR/DRAΔ2 SA: 0.7
[5]
  ΔR/DRAΔ2 LNA: 2.8
[6]
  ΔR/DRAΔ2 AA: 1.8
[7]
  ΔR/DRAΔ2 OA: 1.9

B11: L2P2E11: FABP probe, substitutions M18I G31F vs SEQ ID NO: 2 (protein, listed as Rattus norvegicus)
chain: AFDGTWKVDRNENYEKFIEKMGINVVKRKLFAHDNLKLTITQEGNKFTVKESSNFRNIDVVFELGVDFAYSLADGTELTGTWTMEGNKLVGKFKRVDNGKELIAVREISGNELIQTYTYEGVEAKRIFKKE
modifications: PEPTIDE (1)...(131) wild-type rat intestinal fatty acid binding protein
[1]
  ΔR/DRAΔ2 POA: 2.6
[2]
  ΔR/DRAΔ2 LA: 2.5
[3]
  ΔR/DRAΔ2 PA: 2.0
[4]
  ΔR/DRAΔ2 SA: 0.8
[5]
  ΔR/DRAΔ2 LNA: 2.8
[6]
  ΔR/DRAΔ2 AA: 1.9
[7]
  ΔR/DRAΔ2 OA: 1.6

B12: L1P12 E8: FABP probe, mutations 14L 38A 72G 117F 114E vs SEQ ID NO: 2 (protein, listed as Rattus norvegicus)
chain: AFDGTWKVDRNENLEKFMEKMGINVVKRKLGAHDNLKATITQEGNKFTVKESSNFRNIDVVFELGVDFAYSGADGTELTGTWTMEGNKLVGKFKRVDNGKELIAVREISGNELEQTFTYEGVEAKRIFKKE
modifications: PEPTIDE (1)...(131) wild-type rat intestinal fatty acid binding protein
[8]
  ΔI/Io 1:1 UCB:BSA 440 nm: −0.79
  ΔI/Io 1:1 UCB:BSA 500 nm: −0.70
  ΔI/Io 1:2 UCB:BSA 440 nm: −0.45
  ΔI/Io 1:2 UCB:BSA 500 nm: −0.39

B13: L1P14 D6: FABP probe, mutations 14M 72V 117W vs SEQ ID NO: 2 (protein, listed as Rattus norvegicus)
chain: AFDGTWKVDRNENMEKFMEKMGINVVKRKLGAHDNLKLTITQEGNKFTVKESSNFRNIDVVFELGVDFAYSVADGTELTGTWTMEGNKLVGKFKRVDNGKELIAVREISGNELIQTWTYEGVEAKRIFKKE
modifications: PEPTIDE (1)...(131) wild-type rat intestinal fatty acid binding protein
[8]
  ΔI/Io 1:1 UCB:BSA 440 nm: −0.69
  ΔI/Io 1:1 UCB:BSA 500 nm: −0.64
  ΔI/Io 1:2 UCB:BSA 440 nm: −0.37
  ΔI/Io 1:2 UCB:BSA 500 nm: −0.33
